Laboratory results published in patent publication US11643691B2, “Predictive biomarkers for cancer immunotherapy and methods of using same” (Duke University, priority 2018, dated 2023).

Assays:
Akt = Akt Thr-308 phosphorylation immunoblot of DCs; assay type: cell-based, Murine; conditions: Wnt5a 200 ng/mL, 48 hrs
Text: Data is representative of 3 independent experiments. […] Data is representative of 3 independent experiments. […] Antibodies, Immunoprecipitation, and Immunoblot Analysis: Primary antibodies including CPT1A (Cell signaling), PPAR-γ (Santa Cruz Biotechnology), β-catenin, β-actin (Millipore), p-AMPK(T172)/AMPK (Cell signaling), p-AKT(T308)/Akt (Cell Signaling) were used at 1:1000. Secondary antibodies including goat anti-rabbit IgG-HRP (Millipore) and goat anti-mouse IgG-HRP (Millipore) were used at 1:5000. Cells were lysed in Laemmli sample buffer after treatment and subjected to SDS-polyacrylamide gel electrophoresis and immunoblot analysis. For immunoprecipitation, cells were lysed in radio immunoprecipitation assay (RIPA) buffer [10 mM sodium phosphate (pH 8.0), 150 mM NaCl, 1% Triton X-100, 1% sodium deoxycholate, and 0.1% SDS in the presence of 1 mM DTT, 1 mM phenylmethylsulfonylfluoride, and a protease inhibitor cocktail (Sigma)], precleared with protein A beads, and then incubated with 1 μg of antibody against β-catenin or isotype control IgG with protein A-agarose beads on a rotator overnight at 4° C. After 3 washes with RIPA buffer, immunoprecipitated complexes were eluted in sample buffer by boiling and subjected to immunoblot analysis. Immunoblots were visualized by chemiluminescence substrate (ThermoFisher) and imaged by a ChemiDoc XRSplus system (BioRad).

BMDCs = experiment: Metabolomics LC-MS of TCA intermediates; assay type: cell-based, Murine; conditions: rWnt5a stimulation
Procedure: Metabolomics: Metabolites were extracted from 5×106 BMDCs and subjected to LC-MS analysis according to a previously published protocol (Liu et al., 2014a, Liu et al., 2014b). Metabolites were extracted from 5×106 BMDCs from each experimental group (3 mice per group), washed with ice cold PBS, and lysed in 80% (v/v) methanol on dry ice. Cell lysates were frozen at −80° C. for 15 minutes to disrupt cell membrane and quench enzymatic activity. Samples were then thawed on ice, vortexed rigorously to extract metabolites, and then centrifuged at 20,000 g at 4° C. to precipitate proteins and cell debris. Metabolite extracts were then dried using a speed vacuum and subjected to LC-MS analysis (Liu et al., 2014a, Liu et al., 2014b). Data collected from LC-Q exactive MS is processed on Sieve 2.0 (Thermo). For metabolite analysis, theoretical m/z and retention time of 263 known metabolites were used for positive mode, and 197 metabolites were used for negative mode. Data containing detected m/z and relative intensity of different samples were obtained.

DCs = experiment: Oxygen consumption rate (OCR) / OXPHOS, Seahorse XFe24 flux analysis of murine DCs; assay type: cell-based; conditions: DCs pre-treated
Procedure: Dendritic Cell Conditioning: DCs were treated with Wnt3a (100 ng/mL), Wnt5a (200 ng/mL), LPS (1 μg/mL), 1-MT (1 mM), 2DG (1 mM), or ETO (100 μM), 2-DG(2-deoxy-d-glucose, 1 mM), Oligomycin (1 μM), succinylacetone (250 μM), or vehicle control either for 24 or 48 hrs prior to their use in both in vitro and in vivo experiments.
Cellular Energy Metabolism Analysis: DC energy metabolism was measured using the XFe24 extracellular flux analyzer (Seahorse Bioscience), with the glycolysis stress test kit and the mitochondrial stress test kit as previously described (Everts et al., 2014, Zhao and Klimecki, 2015). For experiments involving LPS injection, DCs were plated in XFe24 plates (200,000/well in 500p1) and treated with LPS for 48 hours prior to XF analysis. DCs were washed and analyzed in XF media (RPMI without sodium bicarbonate, 10 mM glucose, 1% FBS, 2 mM L-glutamine). ECAR was analyzed in real-time with or without LPS stimulation. For experiments involving BrafV600EPten−/− cell line-derived conditioned media (CM), collected CM was concentrated and desalted with an Amicon Ultra 30K filter according to manufacturer's recommendations (Milipore). Final concentrate was further washed with XF media 3 times, added to DCs immediately prior to OCR analysis. For standard ECAR analysis, XF media (without glucose) was used to wash cells prior to the assay. […]

[1] = test system: bone-marrow-derived DCs (BMDCs); experiment: Extracellular lactate assay (surrogate for glycolysis); assay type: cell-based, Murine; conditions: BMDC culture media, 0 to 48 hr
Procedure: Lactate measurement: L-Lactate was measured by lactate dehydrogenase conversion of L-lactate+NAD+ to pyruvate+NADH following treatment with […] (Pesce et al., 1975). Lactate standards and samples were read at NADH specific absorbance 340 nm. For lactate measurement in Wnt5a time course, BMDCs were seeded in a 48-well plate at 1 million cell per well. BMDCs were treated with 100 ng/ml of recombinant Wnt5a from 0 to 48 hours. For extracellular lactate determination, 0.5 ml of supernatant media was collected directly from the culture, deproteinized by polyethylene glycol precipitation (25% w/v PEG-8000, sigma), and clarified by centrifugation at 20,000 g for 5 min. […] L-lactate was measured by lactate dehydrogenase (LDH, final 2 U/ml, Sigma) conversion of L-lactate+NAD+(β-Nicotinamide adenine dinucleotide, Sigma) to pyruvate+NADH in Glycine Buffer solution (final concentration Glycine 0.2M, Hydrazine 0.17M to destroy pyruvate allowing reaction to run to complete oxidation of lactate, Chloroform 0.0125%, Sigma). Reaction was incubated at 37° C. for 30 minute (without CO2), L-lactate standards and samples were read at NADH specific absorbance 340 nm (Infinite 200 PRO, Tecan).

B1: Wnt5a: Recombinant Human/Mouse Wnt5a Protein (R&D Systems) (protein, UniProt P41221 62-380, looked up)
Protein Wnt-5a: IIGAQPLCSQLAGLSQGQKKLCHLYQDHMQYIGEGAKTGIKECQYQFRHRRWNCSTVDNTSVFGRVMQIGSRETAFTYAVSAAGVVNAMSRACREGELSTCGCSRAARPKDLPRDWLWGGCGDNIDYGYRFAKEFVDARERERIHAKGSYESARILMNLHNNEAGRRTVYNLADVACKCHGVSGSCSLKTCWLQLADFRKVGDALKEKYDSAAAMRLNSRGKLVQVNSRFNSPTTQDLVYIDPSPDYCVRNESTGSLGTQGRLCNKTSEGMDGCELMCCGRGYDQFKTVQTERCHCKFHWCCYVKCKKCTEIVDQFVCK
DC Akt Thr-308 phosphorylation (Akt): no impact | TCA intermediate metabolites (BMDCs): increased quantities of many TCA intermediates but a decrease in α-ketoglutarate | OXPHOS in DCs (OCR) (DCs): effectively promoted OXPHOS in DCs | lactate production [1]: suppresses lactate production
